Assay results reported in article PMC11574045, “A cofactor-induced repressive type of transcription factor condensation can be induced by synthetic peptides to suppress tumorigenesis” (The EMBO Journal, 2024).

B1: ZNF473 (protein, UniProt Q8WTR7 1-871, looked up)
Zinc finger protein 473: MAEEFVTLKDVGMDFTLGDWEQLGLEQGDTFWDTALDNCQDLFLLDPPRPNLTSHPDGSEDLEPLAGGSPEATSPDVTETKNSPLMEDFFEEGFSQEIIEMLSKDGFWNSNFGEACIEDTWLDSLLGDPESLLRSDIATNGESPTECKSHELKRGLSPVSTVSTGEDSMVHNVSEKTLTPAKSKEYRGEFFSYSDHSQQDSVQEGEKPYQCSECGKSFSGSYRLTQHWITHTREKPTVHQECEQGFDRNASLSVYPKTHTGYKFYVCNEYGTTFSQSTYLWHQKTHTGEKPCKSQDSDHPPSHDTQPGEHQKTHTDSKSYNCNECGKAFTRIFHLTRHQKIHTRKRYECSKCQATFNLRKHLIQHQKTHAAKTTSECQECGKIFRHSSLLIEHQALHAGEEPYKCNERGKSFRHNSTLKIHQRVHSGEKPYKCSECGKAFHRHTHLNEHRRIHTGYRPHKCQECVRSFSRPSHLMRHQAIHTAEKPYSCAECKETFSDNNRLVQHQKMHTVKTPYECQECGERFICGSTLKCHESVHAREKQGFFVSGKILDQNPEQKEKCFKCNKCEKTFSCSKYLTQHERIHTRGVKPFECDQCGKAFGQSTRLIHHQRIHSRVRLYKWGEQGKAISSASLIKLQSFHTKEHPFKCNECGKTFSHSAHLSKHQLIHAGENPFKCSKCDRVFTQRNYLVQHERTHARKKPLVCNECGKTFRQSSCLSKHQRIHSGEKPYVCDYCGKAFGLSAELVRHQRIHTGEKPYVCQECGKAFTQSSCLSIHRRVHTGEKPYRCGECGKAFAQKANLTQHQRIHTGEKPYSCNVCGKAFVLSAHLNQHLRVHTQETLYQCQRCQKAFRCHSSLSRHQRVHNKQQYCL
B2: ZNF512 (protein, UniProt Q96ME7 1-567, looked up)
Zinc finger protein 512: MSSRLGAVPATSGPTTFKQQRSTRIVGAKNSRTQCSIKDNSFQYTIPHDDSLSGSSSASSCEPVSDFPASFRKSTYWMKMRRIKPAATSHVEGSGGVSAKGKRKPRQEEDEDYREFPQKKHKLYGRKQRPKTQPNPKSQARRIRKEPPVYAAGSLEEQWYLEIVDKGSVSCPTCQAVGRKTIEGLKKHMENCKQEMFTCHHCGKQLRSLAGMKYHVMANHNSLPILKAGDEIDEPSERERLRTVLKRLGKLRCMRESCSSSFTSIMGYLYHVRKCGKGAAELEKMTLKCHHCGKPYRSKAGLAYHLRSEHGPISFFPESGQPECLKEMNLESKSGGRVQRRSAKIAVYHLQELASAELAKEWPKRKVLQDLVPDDRKLKYTRPGLPTFSQEVLHKWKTDIKKYHRIQCPNQGCEAVYSSVSGLKAHLGSCTLGNFVAGKYKCLLCQKEFVSESGVKYHINSVHAEDWFVVNPTTTKSFEKLMKIKQRQQEEEKRRQQHRSRRSLRRRQQPGIELPETELSLRVGKDQRRNNEELVVSASCKEPEQEPVPAQFQKVKPPKTNHKRGRK
B3: CCNH (protein, UniProt P51946 1-323, looked up)
Cyclin-H: MYHNSSQKRHWTFSSEEQLARLRADANRKFRCKAVANGKVLPNDPVFLEPHEEMTLCKYYEKRLLEFCSVFKPAMPRSVVGTACMYFKRFYLNNSVMEYHPRIIMLTCAFLACKVDEFNVSSPQFVGNLRESPLGQEKALEQILEYELLLIQQLNFHLIVHNPYRPFEGFLIDLKTRYPILENPEILRKTADDFLNRIALTDAYLLYTPSQIALTAILSSASRAGITMESYLSESLMLKENRTCLSQLLDIMKSMRNLVKKYEPPRSEEVAVLKQKLERCHSAELALNVITKKRKGYEDDDYVSKKSKHEEEEWTDDDLVESL
B4: ZNF484 (protein, UniProt Q5JVG2 1-852, looked up)
Zinc finger protein 484: MTKSLESVSFKDVTVDFSRDEWQQLDLAQKSLYREVMLENYFNLISVGCQVPKPEVIFSLEQEEPCMLDGEIPSQSRPDGDIGFGPLQQRMSEEVSFQSEININLFTRDDPYSILEELWKDDEHTRKCGENQNKPLSRVVFINKKTLANDSIFEYKDIGEIVHVNTHLVSSRKRPHNCNSCGKNLEPIITLYNRNNATENSDKTIGDGDIFTHLNSHTEVTACECNQCGKPLHHKQALIQQQKIHTRESLYLFSDYVNVFSPKSHAFAHESICAEEKQHECHECEAVFTQKSQLDGSQRVYAGICTEYEKDFSLKSNRQKTPYEGNYYKCSDYGRAFIQKSDLFRCQRIHSGEKPYEYSECEKNLPQNSNLNIHKKIHTGGKHFECTECGKAFTRKSTLSMHQKIHTGEKPYVCTECGKAFIRKSHFITHERIHTGEKPYECSDCGKSFIKKSQLHVHQRIHTGENPFICSECGKVFTHKTNLIIHQKIHTGERPYICTVCGKAFTDRSNLIKHQKIHTGEKPYKCSDCGKSFTWKSRLRIHQKCHTGERHYECSECGKAFIQKSTLSMHQRIHRGEKPYVCTECGKAFFHKSHFITHERIHTGEKPYECSICGKSFTKKSQLHVHQQIHTGEKPYRCAECGKAFTDRSNLFTHQKIHTGEKPYKCSDCGKAFTRKSGLHIHQQSHTGERHYECSECGKAFARKSTLIMHQRIHTGEKPYICNECGKSFIQKSHLNRHRRIHTGEKPYECSDCGKSFIKKSQLHEHHRIHTGEKPYICAECGKAFTIRSNLIKHQKIHTKQKPYKCSDLGKALNWKPQLSMPQKSDNGEVECSMPQLWCGDSEGDQGQLSSI
B5: ZNF501 (protein, UniProt Q96CX3 1-271, looked up)
Zinc finger protein 501: MNSSQISLRMKHGRVNMQKKPSKCSECGKFFTQRSSLTQHQRIHRGEKPYVCSECGSCFRKQSNLTQHLRIHTGEKPYKCNECEKAFQTKAILVQHLRIHTGEKPYKCNECGKAFCQSPSLIKHQRIHTGEKPYKCTECGKAFSQSICLTRHQRSHSGDKPFKCNECGKAFNQSACLMQHQRIHSGEKPYTCTECGKAFTQNSSLVEHERTHTGEKLYKCSECEKTFRKQAHLSEHYRIHTGEKPYECVGCGKSFRHSSALLRHQRLHAGE
B6: ZNF483 (protein, UniProt Q8TF39 1-744, looked up)
Zinc finger protein 483: MQAVVPLNKMTAISPEPQTLASTEQNEVPRVVTSGEQEAILRGNAADAESFRQRFRWFCYSEVAGPRKALSQLWELCNQWLRPDIHTKEQILELLVFEQFLTILPGEIRIWVKSQHPESSEEVVTLIEDLTQMLEEKDPVSQDSTVSQEENSKEDKMVTVCPNTESCESITLKDVAVNFSRGEWKKLEPFQKELYKEVLLENLRNLEFLDFPVSKLELISQLKWVELPWLLEEVSKSSRLDESALDKIIERCLRDDDHGLMEESQQYCGSSEEDHGNQGNSKGRVAQNKTLGSGSRGKKFDPDKSPFGHNFKETSDLIKHLRVYLRKKSRRYNESKKPFSFHSDLVLNRKEKTAGEKSRKSNDGGKVLSHSSALTEHQKRQKIHLGDRSQKCSKCGIIFIRRSTLSRRKTPMCEKCRKDSCQEAALNKDEGNESGEKTHKCSKCGKAFGYSASLTKHRRIHTGEKPYMCNECGKAFSDSSSLTPHHRTHSGEKPFKCDDCGKGFTLSAHLIKHQRIHTGEKPYKCKDCGRPFSDSSSLIQHQRIHTGEKPYTCSNCGKSFSHSSSLSKHQRIHTGEKPYKCGECGKAFRQNSCLTRHQRIHTGEKPYLCNDCGMTFSHFTSVIYHQRLHSGEKPYKCNQCEKAFPTHSLLSRHQRIHTGVKPYKCKECGKSFSQSSSLNEHHRIHTGEKPYECNYCGATFSRSSILVEHLKIHTGRREYECNECEKTFKSNSGLIRHRGFHSAE
B7: ZNF488 (protein, UniProt Q96MN9 1-340, looked up)
Zinc finger protein 488: MPEWPPCLSVAPALVITMAAGKGAPLSPSAENRWRLSEPELGRGCKPVLLEKTNRLGPEAAVGRAGRDVGSAELALLVAPGKPRPGKPLPPKTRGEQRQSAFTELPRMKDRQVDAQAQEREHDDPTGQPGAPQLTQNIPRGPAGSKVFSVWPSGARSEQRSAFSKPTKRPAERPELTSVFPAGESADALGELSGLLNTTDLACWGRLSTPKLLVGDLWNLQALPQNAPLCSTFLGAPTLWLEHTQAQVPPPSSSSTTSWALLPPTLTSLGLSTQNWCAKCNLSFRLTSDLVFHMRSHHKKEHAGPDPHSQKRREEALACPVCQEHFRERHHLSRHMTSHS

Test system: HEK293FT cells transfected with TF library
Assay: Screening of TF condensates based on fluorescent puncta
Type: cell-based
Conditions: Figure 1B numerical data; TF library screen, one value per transcriptional factor
How it was run: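 Each TF construct was introduced into HEK293FT cells using PEI at 4.8 μg/ml; glucose deprivation versus normal medium lasted 12 h. Automated confocal-style imaging of tagged TF staining, 50 fields per well, gave the puncta data.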

Molecule | Z score of condensed fraction
B1 | -0.9289
B2 | -0.5967
B3 | -0.9342
B4 | -0.5495
B5 | -1.032
B6 | 2.279
B7 | -0.1473
